# In patent publication US20240058465A1 (SUTRO BIOPHARMA, published 2024):
# B1: Conjugate 19 (D04-F404-LP30) (antibody, human IgG1, kappa)
# heavy: MEVQLVESGGGLVQPGGSLRLSCAASGFNISDYDIHWVRQAPGKGLEWVGGIDPADGSTDYADSVKGRFTISADTSKNTAYLQMNSLRAEDTAVYYCARDYGVYDYWGQGTLVTVSSASTKGPSVFPLAPSSKSTSGGTAALGCLVKDYFPEPVTVSWNSGALTSGVHTFPAVLQSSGLYSLSSVVTVPSSSLGTQTYICNVNHKPSNTKVDKKVEPKSCDKTHTCPPCPAPELLGGPSVFLFPPKPKDTLMISRTPEVTCVVVDVSHEDPEVKFNWYVDGVEVHNAKTKPREEQYNSTYRVVSVLTVLHQDWLNGKEYKCKVSNKALPAPIEKTISKAKGQPREPQVYTLPPSREEMTKNQVSLTCLVKGFYPSDIAVEWESNGQPENNYKTTPPVLDSDGSFLYSKLTVDKSRWQQGNVFSCSVMHEALHNHYTQKSLSLSPGK
# light: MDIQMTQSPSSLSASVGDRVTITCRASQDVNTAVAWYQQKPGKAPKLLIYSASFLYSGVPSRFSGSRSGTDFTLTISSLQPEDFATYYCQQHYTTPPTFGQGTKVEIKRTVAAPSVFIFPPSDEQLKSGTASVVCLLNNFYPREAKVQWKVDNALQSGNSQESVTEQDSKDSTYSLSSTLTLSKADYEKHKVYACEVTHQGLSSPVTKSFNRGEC
# modifications: pAMF at F404 (EU), linked to LP30
# B2: Conjugate 20 (D04-F404-LP31) (antibody, human IgG1, kappa)
# heavy: MEVQLVESGGGLVQPGGSLRLSCAASGFNISDYDIHWVRQAPGKGLEWVGGIDPADGSTDYADSVKGRFTISADTSKNTAYLQMNSLRAEDTAVYYCARDYGVYDYWGQGTLVTVSSASTKGPSVFPLAPSSKSTSGGTAALGCLVKDYFPEPVTVSWNSGALTSGVHTFPAVLQSSGLYSLSSVVTVPSSSLGTQTYICNVNHKPSNTKVDKKVEPKSCDKTHTCPPCPAPELLGGPSVFLFPPKPKDTLMISRTPEVTCVVVDVSHEDPEVKFNWYVDGVEVHNAKTKPREEQYNSTYRVVSVLTVLHQDWLNGKEYKCKVSNKALPAPIEKTISKAKGQPREPQVYTLPPSREEMTKNQVSLTCLVKGFYPSDIAVEWESNGQPENNYKTTPPVLDSDGSFLYSKLTVDKSRWQQGNVFSCSVMHEALHNHYTQKSLSLSPGK
# light: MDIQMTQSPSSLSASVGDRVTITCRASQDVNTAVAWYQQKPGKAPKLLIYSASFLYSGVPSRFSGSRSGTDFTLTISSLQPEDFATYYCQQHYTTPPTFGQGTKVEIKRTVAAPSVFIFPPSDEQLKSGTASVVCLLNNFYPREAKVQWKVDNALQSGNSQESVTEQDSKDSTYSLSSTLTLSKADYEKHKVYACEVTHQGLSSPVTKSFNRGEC
# modifications: pAMF at F404 (EU), linked to LP31
# B3: Conjugate 23 (D04 x D04-F404-LP8) (antibody, human IgG1, kappa)
# heavy 1: MEVQLVESGGGLVQPGGSLRLSCAASGFNISDYDIHWVRQAPGKGLEWVGGIDPADGSTDYADSVKGRFTISADTSKNTAYLQMNSLRAEDTAVYYCARDYGVYDYWGQGTLVTVSSASTKGPSVFPLAPSSKSTSGGTAALGCLVKDYFPEPVTVSWNSGALTSGVHTFPAVLQSSGLYSLSSVVTVPSSSLGTQTYICNVNHKPSNTKVDKKVEPKSCDKTHTCPPCPAPELLGGPSVFLFPPKPKDTLMISRTPEVTCVVVDVSHEDPEVKFNWYVDGVEVHNAKTKPREEQYNSTYRVVSVLTVLHQDWLNGKEYKCKVSNKALPAPIEKTISKAKGQPREPQVYTLPPSREEMTKNQVSLWCLVKGFYPSDIAVEWESNGQPENNYKTTPPVLDSDGSFLYSKLTVDKSRWQQGNVFSCSVMHEALHNHYTQKSLSLSPGK
# heavy 2: MEVQLVESGGGLVQPGGSLRLSCAASGFNISDYDIHWVRQAPGKGLEWVGGIDPADGSTDYADSVKGRFTISADTSKNTAYLQMNSLRAEDTAVYYCARDYGVYDYWGQGTLVTVSSASTKGPSVFPLAPSSKSTSGGTAALGCLVKDYFPEPVTVSWNSGALTSGVHTFPAVLQSSGLYSLSSVVTVPSSSLGTQTYICNVNHKPSNTKVDKKVEPKSCDKTHTCPPCPAPELLGGPSVFLFPPKPKDTLMISRTPEVTCVVVDVSHEDPEVKFNWYVDGVEVHNAKTKPREEQYNSTYRVVSVLTVLHQDWLNGKEYKCKVSNKALPAPIEKTISKAKGQPREPQVYTLPPSREEMTKNQVSLSCAVKGFYPSDIAVEWESNGQPENNYKTTPPVLDSDGSFLVSKLTVDKSRWQQGNVFSCSVMHEALHNHYTQKSLSLSPGK
# light: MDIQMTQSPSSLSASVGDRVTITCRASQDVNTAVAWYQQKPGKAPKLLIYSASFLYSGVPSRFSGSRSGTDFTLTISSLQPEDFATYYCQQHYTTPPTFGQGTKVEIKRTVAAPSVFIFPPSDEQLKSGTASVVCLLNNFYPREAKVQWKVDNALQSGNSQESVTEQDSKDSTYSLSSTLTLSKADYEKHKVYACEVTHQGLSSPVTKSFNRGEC
# modifications: pAMF at F404 (EU), linked to LP8
# B4: Conjugate 27 (D04 x B04-F404-LP8 biparatopic) (bispecific antibody, human IgG1, kappa)
# heavy 1: MEVQLVESGGGLVQPGGSLRLSCAASGFNISDYDIHWVRQAPGKGLEWVGGIDPADGSTDYADSVKGRFTISADTSKNTAYLQMNSLRAEDTAVYYCARDYGVYDYWGQGTLVTVSSASTKGPSVFPLAPSSKSTSGGTAALGCLVKDYFPEPVTVSWNSGALTSGVHTFPAVLQSSGLYSLSSVVTVPSSSLGTQTYICNVNHKPSNTKVDKKVEPKSCDKTHTCPPCPAPELLGGPSVFLFPPKPKDTLMISRTPEVTCVVVDVSHEDPEVKFNWYVDGVEVHNAKTKPREEQYNSTYRVVSVLTVLHQDWLNGKEYKCKVSNKALPAPIEKTISKAKGQPREPQVYTLPPSREEMTKNQVSLWCLVKGFYPSDIAVEWESNGQPENNYKTTPPVLDSDGSFLYSKLTVDKSRWQQGNVFSCSVMHEALHNHYTQKSLSLSPGK
# heavy 2: MEVQLVESGGGLVQPGGSLRLSCAASGFNIAGYAIHWVRQAPGKGLEWVGLITPTPGTSNYADSVKGRFTISVDTSKNTAYLQMNSLRAEDTAAYYCARDYRGVYLYSFYYDYWGQGTLVTVSSASTKGPSVFPLAPSSKSTSGGTAALGCLVKDYFPEPVTVSWNSGALTSGVHTFPAVLQSSGLYSLSSVVTVPSSSLGTQTYICNVNHKPSNTKVDKKVEPKSCDKTHTCPPCPAPELLGGPSVFLFPPKPKDTLMISRTPEVTCVVVDVSHEDPEVKFNWYVDGVEVHNAKTKPREEQYNSTYRVVSVLTVLHQDWLNGKEYKCKVSNKALPAPIEKTISKAKGQPREPQVYTLPPSREEMTKNQVSLSCAVKGFYPSDIAVEWESNGQPENNYKTTPPVLDSDGSFLVSKLTVDKSRWQQGNVFSCSVMHEALHNHYTQKSLSLSPGK
# light: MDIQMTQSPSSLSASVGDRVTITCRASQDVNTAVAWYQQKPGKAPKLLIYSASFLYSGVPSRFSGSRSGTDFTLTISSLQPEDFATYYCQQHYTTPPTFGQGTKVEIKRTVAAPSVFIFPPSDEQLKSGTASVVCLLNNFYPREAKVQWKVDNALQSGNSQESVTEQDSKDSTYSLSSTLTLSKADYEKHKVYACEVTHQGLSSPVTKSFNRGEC
# modifications: pAMF at F404 (EU), linked to LP8
# B5: Conjugate 24 (D04 x C01-F404-LP8 biparatopic) (bispecific antibody, human IgG1, kappa)
# heavy 1: MEVQLVESGGGLVQPGGSLRLSCAASGFNISDYDIHWVRQAPGKGLEWVGGIDPADGSTDYADSVKGRFTISADTSKNTAYLQMNSLRAEDTAVYYCARDYGVYDYWGQGTLVTVSSASTKGPSVFPLAPSSKSTSGGTAALGCLVKDYFPEPVTVSWNSGALTSGVHTFPAVLQSSGLYSLSSVVTVPSSSLGTQTYICNVNHKPSNTKVDKKVEPKSCDKTHTCPPCPAPELLGGPSVFLFPPKPKDTLMISRTPEVTCVVVDVSHEDPEVKFNWYVDGVEVHNAKTKPREEQYNSTYRVVSVLTVLHQDWLNGKEYKCKVSNKALPAPIEKTISKAKGQPREPQVYTLPPSREEMTKNQVSLWCLVKGFYPSDIAVEWESNGQPENNYKTTPPVLDSDGSFLYSKLTVDKSRWQQGNVFSCSVMHEALHNHYTQKSLSLSPGK
# heavy 2: MEVQLVESGGGLVQPGGSLRLSCAASGFNINGYDIHWVRQAPGKGLEWVGYIDPNDGATNYADSVKGRFTISADTSKNTAYLQMNSLRAEDTAVYYCARDYGVFDYWGQGTLVTVSSASTKGPSVFPLAPSSKSTSGGTAALGCLVKDYFPEPVTVSWNSGALTSGVHTFPAVLQSSGLYSLSSVVTVPSSSLGTQTYICNVNHKPSNTKVDKKVEPKSCDKTHTCPPCPAPELLGGPSVFLFPPKPKDTLMISRTPEVTCVVVDVSHEDPEVKFNWYVDGVEVHNAKTKPREEQYNSTYRVVSVLTVLHQDWLNGKEYKCKVSNKALPAPIEKTISKAKGQPREPQVYTLPPSREEMTKNQVSLSCAVKGFYPSDIAVEWESNGQPENNYKTTPPVLDSDGSFLVSKLTVDKSRWQQGNVFSCSVMHEALHNHYTQKSLSLSPGK
# light: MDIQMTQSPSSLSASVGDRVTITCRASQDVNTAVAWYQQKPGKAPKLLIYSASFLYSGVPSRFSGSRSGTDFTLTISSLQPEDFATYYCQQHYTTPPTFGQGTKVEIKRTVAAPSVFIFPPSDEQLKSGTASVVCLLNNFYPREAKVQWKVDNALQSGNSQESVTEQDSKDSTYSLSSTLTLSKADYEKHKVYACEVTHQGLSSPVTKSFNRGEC
# modifications: pAMF at F404 (EU), linked to LP8
# B6: Conjugate 25 (D04 x B09-F404-LP8 biparatopic) (bispecific antibody, human IgG1, kappa)
# heavy 1: MEVQLVESGGGLVQPGGSLRLSCAASGFNISDYDIHWVRQAPGKGLEWVGGIDPADGSTDYADSVKGRFTISADTSKNTAYLQMNSLRAEDTAVYYCARDYGVYDYWGQGTLVTVSSASTKGPSVFPLAPSSKSTSGGTAALGCLVKDYFPEPVTVSWNSGALTSGVHTFPAVLQSSGLYSLSSVVTVPSSSLGTQTYICNVNHKPSNTKVDKKVEPKSCDKTHTCPPCPAPELLGGPSVFLFPPKPKDTLMISRTPEVTCVVVDVSHEDPEVKFNWYVDGVEVHNAKTKPREEQYNSTYRVVSVLTVLHQDWLNGKEYKCKVSNKALPAPIEKTISKAKGQPREPQVYTLPPSREEMTKNQVSLWCLVKGFYPSDIAVEWESNGQPENNYKTTPPVLDSDGSFLYSKLTVDKSRWQQGNVFSCSVMHEALHNHYTQKSLSLSPGK
# heavy 2: MEVQLVESGGGLVQPGGSLRLSCAASGFNINNSYIHWVRQAPGKGLEWVGIIDPNNGSTAYADSVKGRFTISADTSKNTAYLQMNSLRAEDTAVYYCARSRWYRVLWSYVLDYWGQGTLVTVSSASTKGPSVFPLAPSSKSTSGGTAALGCLVKDYFPEPVTVSWNSGALTSGVHTFPAVLQSSGLYSLSSVVTVPSSSLGTQTYICNVNHKPSNTKVDKKVEPKSCDKTHTCPPCPAPELLGGPSVFLFPPKPKDTLMISRTPEVTCVVVDVSHEDPEVKFNWYVDGVEVHNAKTKPREEQYNSTYRVVSVLTVLHQDWLNGKEYKCKVSNKALPAPIEKTISKAKGQPREPQVYTLPPSREEMTKNQVSLSCAVKGFYPSDIAVEWESNGQPENNYKTTPPVLDSDGSFLVSKLTVDKSRWQQGNVFSCSVMHEALHNHYTQKSLSLSPGK
# light: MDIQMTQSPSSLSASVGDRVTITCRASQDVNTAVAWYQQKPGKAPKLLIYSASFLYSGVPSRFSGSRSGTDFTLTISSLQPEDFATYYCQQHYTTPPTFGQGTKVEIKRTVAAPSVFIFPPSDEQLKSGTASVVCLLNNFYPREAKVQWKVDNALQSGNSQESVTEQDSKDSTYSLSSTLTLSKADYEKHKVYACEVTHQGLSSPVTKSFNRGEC
# modifications: pAMF at F404 (EU), linked to LP8
# B7: Conjugate 26 (D04 x A05-F404-LP8 biparatopic) (bispecific antibody, human IgG1, kappa)
# heavy 1: MEVQLVESGGGLVQPGGSLRLSCAASGFNISDYDIHWVRQAPGKGLEWVGGIDPADGSTDYADSVKGRFTISADTSKNTAYLQMNSLRAEDTAVYYCARDYGVYDYWGQGTLVTVSSASTKGPSVFPLAPSSKSTSGGTAALGCLVKDYFPEPVTVSWNSGALTSGVHTFPAVLQSSGLYSLSSVVTVPSSSLGTQTYICNVNHKPSNTKVDKKVEPKSCDKTHTCPPCPAPELLGGPSVFLFPPKPKDTLMISRTPEVTCVVVDVSHEDPEVKFNWYVDGVEVHNAKTKPREEQYNSTYRVVSVLTVLHQDWLNGKEYKCKVSNKALPAPIEKTISKAKGQPREPQVYTLPPSREEMTKNQVSLWCLVKGFYPSDIAVEWESNGQPENNYKTTPPVLDSDGSFLYSKLTVDKSRWQQGNVFSCSVMHEALHNHYTQKSLSLSPGK
# heavy 2: MEVQLVESGGGLVQPGGSLRLSCAASGFNIKEYHIHWVRQAPGKGLEWVGYISPNSGSTYYADSVKGRFTISADTSKNTAYLQMNSLRAEDTAVYYCARDHRRYVRPFDYWGQGTLVTVSSASTKGPSVFPLAPSSKSTSGGTAALGCLVKDYFPEPVTVSWNSGALTSGVHTFPAVLQSSGLYSLSSVVTVPSSSLGTQTYICNVNHKPSNTKVDKKVEPKSCDKTHTCPPCPAPELLGGPSVFLFPPKPKDTLMISRTPEVTCVVVDVSHEDPEVKFNWYVDGVEVHNAKTKPREEQYNSTYRVVSVLTVLHQDWLNGKEYKCKVSNKALPAPIEKTISKAKGQPREPQVYTLPPSREEMTKNQVSLSCAVKGFYPSDIAVEWESNGQPENNYKTTPPVLDSDGSFLVSKLTVDKSRWQQGNVFSCSVMHEALHNHYTQKSLSLSPGK
# light: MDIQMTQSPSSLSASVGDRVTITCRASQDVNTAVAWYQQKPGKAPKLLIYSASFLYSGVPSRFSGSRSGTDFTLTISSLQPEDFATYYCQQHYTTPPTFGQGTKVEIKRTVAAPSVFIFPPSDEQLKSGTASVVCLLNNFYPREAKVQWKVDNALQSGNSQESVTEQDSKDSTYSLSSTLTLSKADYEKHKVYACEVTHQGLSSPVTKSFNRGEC
# modifications: pAMF at F404 (EU), linked to LP8
# B8: Conjugate 17 (D04-F404-LP14) (antibody, human IgG1, kappa)
# heavy: MEVQLVESGGGLVQPGGSLRLSCAASGFNISDYDIHWVRQAPGKGLEWVGGIDPADGSTDYADSVKGRFTISADTSKNTAYLQMNSLRAEDTAVYYCARDYGVYDYWGQGTLVTVSSASTKGPSVFPLAPSSKSTSGGTAALGCLVKDYFPEPVTVSWNSGALTSGVHTFPAVLQSSGLYSLSSVVTVPSSSLGTQTYICNVNHKPSNTKVDKKVEPKSCDKTHTCPPCPAPELLGGPSVFLFPPKPKDTLMISRTPEVTCVVVDVSHEDPEVKFNWYVDGVEVHNAKTKPREEQYNSTYRVVSVLTVLHQDWLNGKEYKCKVSNKALPAPIEKTISKAKGQPREPQVYTLPPSREEMTKNQVSLTCLVKGFYPSDIAVEWESNGQPENNYKTTPPVLDSDGSFLYSKLTVDKSRWQQGNVFSCSVMHEALHNHYTQKSLSLSPGK
# light: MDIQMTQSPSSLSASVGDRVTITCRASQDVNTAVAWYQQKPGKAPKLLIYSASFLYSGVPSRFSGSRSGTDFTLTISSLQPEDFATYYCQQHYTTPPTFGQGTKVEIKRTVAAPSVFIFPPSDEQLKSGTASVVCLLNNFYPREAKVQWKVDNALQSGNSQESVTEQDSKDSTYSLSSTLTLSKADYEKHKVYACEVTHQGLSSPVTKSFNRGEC
# modifications: pAMF at F404 (EU), linked to LP14
# Biological target: receptor tyrosine kinase orphan receptor 1 (ROR1) on Ntera-2 cells (human, UniProt Q01973 30-937)
# Test: cell-based or functional assay
Binder,"cell killing EC50, NTERA-2 cells","cell killing Span, NTERA-2 cells"
B1,0.043 nM,83%
B2,> 10 nM,> 60%
B3,0.022 nM,83%
B4,0.024 nM,89%
B5,0.017 nM,85%
B6,0.018 nM,87%
B7,0.028 nM,84%
B8,0.03 nM,77%
